Among the data in article PMC8730436 are Kd values, retold here.

The series has as its system RplI (ribosomal large subunit protein L9) (Pseudomonas aeruginosa mPAO1). Nature of the series: MST.

Substance -24 nt-exsA RNA gave a Kd of 529 nM.

A word on the Kd: it is the concentration at which binding is half-saturated. Lower therefore signals higher affinity.
